According to publication PMC11270187 (2024):
Where two headings read alike, the source gives them in different places.

Tests used:
HLA-DR on BJAB cells [1] = molecular target: T1, HLA-DR on BJAB cells (human (endogenous in BJAB), UniProt P01903 26-254; P01911 30-266); test: FACS
[2] = molecular target: T2, recombinant HLA-DR (uncleaved) (human, UniProt P01903 28-206; P01911 30-219); test: BLI; apparent
HLA-DR on BJAB cells [3] = molecular target: T1, HLA-DR on BJAB cells; test: FACS; remark: listed apart in the source
HLA-DR on BJAB cells [4] = molecular target: T1, HLA-DR on BJAB cells; test: FACS; remark: listed apart in the source
[5] = molecular target: T2, recombinant HLA-DR (uncleaved); test: BLI; apparent; remark: listed apart in the source
[6] = molecular target: T2, recombinant HLA-DR (uncleaved); test: BLI; apparent; remark: listed apart in the source

Row | Binder | EC50 (HLA-DR on BJAB cells [1]) [nM] | EC50 (HLA-DR on BJAB cells [3]) [nM] | other results
1 | humanized 44H10 version 17 IgG (antibody, V domains shown) VH: QVTLKESGPVLVKPTETLTLTCTVSGFSLTSYGVHWIRQPPGKALEWLAVIWAGGSISYSTSLMSRLTISKDTSKSQVVLTMTNMDPVDTATYYCARAYGDYVHYAMDYWGQGTLVTVSS VL: DIQMTQSPSSLSASVGDRVTITCRASQEISGYLTWLQQKPGKAPKLLIYAASTLDSGVPSRFSGSGSGTDFTLTISSLQPEDFATYYCLQYTNYPLTFGQGTKLEIK | 43 |  | 
2 | humanized 44H10 version 22 IgG (antibody, V domains shown) VH: QVQLQESGPGLVKPSETLSLTCTVSGFSLTSYGVHWIRQPPGKGLEWIGVIWAGGSINYNSALMSRVTISKDTSKNQVSLKLSSVTAADTAVYYCARAYGDYVHYAMDYWGQGTLVTVSS VL: DIQMTQSPSSLSASVGDRVTITCRASQEISGYLTWLQQKPGKAPKLLIYAASTLDSGVPKRFSGSRSGTDFTLTISSLQPEDFATYYCLQYTNYPLTFGQGTKLEIK |  | 1.7 | Kd [2]: 29 nM
3 | humanized 44H10 version 21 IgG (V17 with light chain S60K and G66R back-mutations) (antibody, V domains shown) VH: QVTLKESGPVLVKPTETLTLTCTVSGFSLTSYGVHWIRQPPGKALEWLAVIWAGGSISYSTSLMSRLTISKDTSKSQVVLTMTNMDPVDTATYYCARAYGDYVHYAMDYWGQGTLVTVSS VL: DIQMTQSPSSLSASVGDRVTITCRASQEISGYLTWLQQKPGKAPKLLIYAASTLDSGVPKRFSGSRSGTDFTLTISSLQPEDFATYYCLQYTNYPLTFGQGTKLEIK |  |  | EC50 (HLA-DR on BJAB cells [4]): 14 nM; Kd [5]: 95 nM
4 | parental 44H10 IgG (antibody, V domains shown) VH: QVQLKESGPGLVAPSQSLSITCTVSGFSLTSYGVHWVRQPPGKGLEWLGVIWAGGSINYNSALMSRLSISKDNFKSQVFLKMSSLQTDDTAMYYCARAYGDYVHYAMDYWGQGTSVTASS VL: DIQMTQSPSSLSASLGQRVSLTCRASQEISGYLTWLQQKPDGTIKRLVYAASTLDSGVPKRFSGSRSGSDYSLTISSLESEDFADYYCLQYTNYPLTFGAGTKLELK | 0.8 | 1 | Kd [6]: 2.2 nM
